Data on two molecules can be found in publication doi:10.1101/789909 (bioRxiv, 2019).

Experiment [1] concerns the target purified DmsD (E. coli) (UniProt P69853). Briefly: SPR.
Experiment [2] deals with T1, EcTatBC with 6xHis tag (complex of TatB and TatC), purified (E. coli, UniProt P69425 1-171; P69423 1-258).
T1 sequence 1: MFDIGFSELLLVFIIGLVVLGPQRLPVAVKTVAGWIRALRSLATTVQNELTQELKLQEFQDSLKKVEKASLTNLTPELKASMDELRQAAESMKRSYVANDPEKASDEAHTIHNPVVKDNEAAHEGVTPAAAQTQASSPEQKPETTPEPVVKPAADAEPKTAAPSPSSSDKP
T1 sequence 2: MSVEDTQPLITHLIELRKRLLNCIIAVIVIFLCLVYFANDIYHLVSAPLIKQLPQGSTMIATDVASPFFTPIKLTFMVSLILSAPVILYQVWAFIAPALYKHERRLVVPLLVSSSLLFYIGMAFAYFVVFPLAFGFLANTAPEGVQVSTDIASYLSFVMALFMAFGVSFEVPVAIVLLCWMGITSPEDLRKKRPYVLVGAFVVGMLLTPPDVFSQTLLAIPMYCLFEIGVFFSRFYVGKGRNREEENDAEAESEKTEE
Put plainly: SPR.

Usually Kd stands for the concentration at which binding is half-saturated. “ssDmsA_45 (printed ssDmsD_45), truncated form of ssDmsA-GFP (domain or fragment)”: the Kd in experiment [1] worked out at 55.9 nM.

B1: purified DmsD (natural protein)
chain: MTHFSQQDNFSVAARVLGALFYYAPESAEAAPLVAVLTSDGWETQWPLPEASLAPLVTAFQTQCEETHAQAWQRLFVGPWALPSPPWGSVWLDRESVLFGDSTLALRQWMREKGIQFEMKQNEPEDHFGSLLLMAAWLAENGRQTECEELLAWHLFPWSTRFLDVFIEKAEHPFYRALGELARLTLAQWQSQLLIPVAVKPLFR
With B1, the binding result in experiment [2] is on record as “binds”.
